In patent publication US20140186371A1 (published 2014):

Key:
[1] = biological target: T1, human iC3b (human, UniProt P01024 23-667; P01024 749-1303; P01024 1321-1663); assay: sandwich ELISA: chicken anti-C3 capture antibody on the plate, iC3b captured, A209 as detecting antibody, goat anti-mouse-HRP, ABTS
T1 construct: Bought purified protein; three chains held together by disulfide bonds; also called purified human iC3b (Complement Technology #A115)

[2] = biological target: T1, human iC3b; assay: sandwich ELISA, antigen captured by chicken anti-C3 antibody
[3] = biological target: T1, human iC3b; assay: Biacore (SPR); reference C3b
[4] = biological target: T1, human iC3b; assay: sandwich ELISA; reference C3b
[5] = biological target: T1, human iC3b; assay: Biacore, antibody captured on anti-mouse CM5 chip, antigen in solution
[6] = biological target: T2, human C3 (human, UniProt P01024 23-667; P01024 672-1663); assay: as above
T2 construct: Bought purified protein; also called C3 (Complement Technology #A113)
T2 sequence (P01024 23-667, chain 1 of 2): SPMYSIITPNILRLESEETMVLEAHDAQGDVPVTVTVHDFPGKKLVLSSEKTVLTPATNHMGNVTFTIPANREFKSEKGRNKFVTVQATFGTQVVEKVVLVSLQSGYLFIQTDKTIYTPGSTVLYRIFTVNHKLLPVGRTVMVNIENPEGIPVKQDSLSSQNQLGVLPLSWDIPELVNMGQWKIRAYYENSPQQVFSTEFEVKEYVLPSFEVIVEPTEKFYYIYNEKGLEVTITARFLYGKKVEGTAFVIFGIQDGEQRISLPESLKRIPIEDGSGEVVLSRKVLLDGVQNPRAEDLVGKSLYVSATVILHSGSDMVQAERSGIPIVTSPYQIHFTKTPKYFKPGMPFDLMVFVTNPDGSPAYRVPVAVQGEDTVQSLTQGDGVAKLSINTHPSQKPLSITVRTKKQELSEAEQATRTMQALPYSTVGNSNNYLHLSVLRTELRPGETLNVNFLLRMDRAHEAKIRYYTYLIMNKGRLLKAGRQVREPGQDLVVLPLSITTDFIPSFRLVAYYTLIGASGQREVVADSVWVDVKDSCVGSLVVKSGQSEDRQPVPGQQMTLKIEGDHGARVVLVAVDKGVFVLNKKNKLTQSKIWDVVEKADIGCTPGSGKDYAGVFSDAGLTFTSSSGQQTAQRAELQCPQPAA
T2 sequence (P01024 672-1663, chain 2 of 2): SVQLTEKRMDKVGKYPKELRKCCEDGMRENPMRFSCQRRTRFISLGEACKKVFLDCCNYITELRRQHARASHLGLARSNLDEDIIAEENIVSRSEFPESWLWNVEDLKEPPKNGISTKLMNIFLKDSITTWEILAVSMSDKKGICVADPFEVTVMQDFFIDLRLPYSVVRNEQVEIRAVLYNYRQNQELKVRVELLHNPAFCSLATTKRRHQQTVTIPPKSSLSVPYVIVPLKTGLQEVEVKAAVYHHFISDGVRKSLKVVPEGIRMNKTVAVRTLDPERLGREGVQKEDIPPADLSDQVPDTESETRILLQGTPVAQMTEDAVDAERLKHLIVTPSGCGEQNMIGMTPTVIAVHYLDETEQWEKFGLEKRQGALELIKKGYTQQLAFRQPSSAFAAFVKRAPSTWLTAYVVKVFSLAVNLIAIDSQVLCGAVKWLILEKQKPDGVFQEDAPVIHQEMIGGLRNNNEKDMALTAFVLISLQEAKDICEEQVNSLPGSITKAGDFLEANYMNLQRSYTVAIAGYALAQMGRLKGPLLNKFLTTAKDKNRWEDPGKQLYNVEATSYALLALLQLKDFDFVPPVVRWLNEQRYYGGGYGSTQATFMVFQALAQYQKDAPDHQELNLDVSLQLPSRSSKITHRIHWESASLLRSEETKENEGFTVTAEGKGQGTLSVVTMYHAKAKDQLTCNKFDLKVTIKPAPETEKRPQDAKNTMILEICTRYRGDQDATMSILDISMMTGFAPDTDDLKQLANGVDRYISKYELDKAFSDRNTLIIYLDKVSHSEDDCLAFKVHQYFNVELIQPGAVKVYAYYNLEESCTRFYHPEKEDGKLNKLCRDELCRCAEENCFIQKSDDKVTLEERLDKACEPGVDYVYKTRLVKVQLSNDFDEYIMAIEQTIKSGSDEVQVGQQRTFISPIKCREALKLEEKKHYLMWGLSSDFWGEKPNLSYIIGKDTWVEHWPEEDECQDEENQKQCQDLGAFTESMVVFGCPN

[7] = biological target: T1, human iC3b; assay: Biacore, antibody captured on anti-mouse CM5 chip

T1 sequence (P01024 23-667 limits assumed, chain 1 of 3): as the sequence (P01024 23-667, chain 1 of 2) above
T1 sequence (P01024 749-1303 limits assumed, chain 2 of 3): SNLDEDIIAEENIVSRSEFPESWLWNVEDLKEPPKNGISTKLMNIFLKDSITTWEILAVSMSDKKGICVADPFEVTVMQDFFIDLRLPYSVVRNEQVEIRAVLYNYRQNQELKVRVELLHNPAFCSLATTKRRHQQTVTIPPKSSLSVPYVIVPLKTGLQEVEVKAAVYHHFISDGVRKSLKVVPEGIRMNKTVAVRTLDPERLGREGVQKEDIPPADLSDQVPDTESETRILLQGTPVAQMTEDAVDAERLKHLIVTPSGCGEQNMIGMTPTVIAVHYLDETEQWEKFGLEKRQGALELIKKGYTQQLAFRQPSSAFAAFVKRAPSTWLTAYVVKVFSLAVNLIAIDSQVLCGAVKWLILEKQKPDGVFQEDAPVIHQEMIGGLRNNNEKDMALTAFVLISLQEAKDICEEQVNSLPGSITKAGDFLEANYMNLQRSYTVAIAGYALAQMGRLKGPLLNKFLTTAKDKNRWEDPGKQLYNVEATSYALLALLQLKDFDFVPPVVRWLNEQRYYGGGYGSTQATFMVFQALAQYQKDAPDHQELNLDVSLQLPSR
T1 sequence (P01024 1321-1663 limits assumed, chain 3 of 3): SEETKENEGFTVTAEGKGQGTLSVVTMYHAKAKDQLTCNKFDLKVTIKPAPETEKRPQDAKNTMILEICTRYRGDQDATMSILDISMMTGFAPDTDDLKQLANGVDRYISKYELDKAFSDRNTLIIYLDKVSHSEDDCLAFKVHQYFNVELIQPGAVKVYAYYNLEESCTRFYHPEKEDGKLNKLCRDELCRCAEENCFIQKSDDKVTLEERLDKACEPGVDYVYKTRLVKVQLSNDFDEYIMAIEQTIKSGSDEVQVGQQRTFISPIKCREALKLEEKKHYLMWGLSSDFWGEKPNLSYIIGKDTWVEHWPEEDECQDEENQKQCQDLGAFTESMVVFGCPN

Row | EC50 (read off the curve) [1] | fold specificity for iC3b vs. C3 or C3b [2] | fold higher affinity constant for iC3b than C3b [3] | fold higher affinity constant for iC3b than C3b [4] | Kd [5] | Kd [6] | fold difference in KD, iC3b relative to C3 [7] | Molecule
1 | 0.03 µg/mL |  |  |  |  |  |  | A209 antibody (Quidel)
2 |  | > 2 fold | ≥ 10 fold | ≥ 2 fold |  |  |  | mouse monoclonal antibody 5D2 (antibody, V domains shown) VH: EVQLQQSGPELVKPGASVKISCKASGYTFTDNYYMNWVKQSHGKSLEWIGHIYPNNGVTSYNQKFRGKATLTVDKSSNSAYMELRSLTSEDSALYYCARNKLLSLYWYFDVWGTGTSVTVSS VL: DIQMTQSSSSFSVFLGDRITITCRASVDIYNRLAWFQQKPGNAPRLLISGATSLATGVPSRFSGSGSGKDYTLSITSLQTEDVTIYYCQQYWSTPWTFGGGTKLEIKR
3 |  | > 2 fold | ≥ 10 fold | ≥ 2 fold | 43.3 nM | 2100 nM | > 10 fold | mouse monoclonal antibody 6G1 (antibody, V domains shown) VH: QIQLVQSGPELKKPGETVKISCKASGYTFTNYGMNWVKQAPGKDLKWMGWINTYTGEPRYADEFKGRFAFSLETSASTAYLQINNLKNEDMATYFCAKGGYPHYYSMDYWGQGTSVTVSS VL: DIQMTQSTSSLSASLGDRVTISCRASQDINNYLNWYQQKPDGTIKLLIYYTSKLHSGVPSRFSGSGSGRDYSLTISNLEQEDIATYFCQQGNTLPRTFGGGTKLEIKR
